How the values were obtained:
SEC = molecular target: the molecule itself; assay: SEC
native gel or EMSA = molecular target: the molecule itself; assay: native gel or EMSA
Vts1-SNAP (full length) [1] = molecular target: T1, Vts1-SNAP (full length) (UniProt Q08831 1-523); assay: fluorescence microscopy co-localization
T1 sequence: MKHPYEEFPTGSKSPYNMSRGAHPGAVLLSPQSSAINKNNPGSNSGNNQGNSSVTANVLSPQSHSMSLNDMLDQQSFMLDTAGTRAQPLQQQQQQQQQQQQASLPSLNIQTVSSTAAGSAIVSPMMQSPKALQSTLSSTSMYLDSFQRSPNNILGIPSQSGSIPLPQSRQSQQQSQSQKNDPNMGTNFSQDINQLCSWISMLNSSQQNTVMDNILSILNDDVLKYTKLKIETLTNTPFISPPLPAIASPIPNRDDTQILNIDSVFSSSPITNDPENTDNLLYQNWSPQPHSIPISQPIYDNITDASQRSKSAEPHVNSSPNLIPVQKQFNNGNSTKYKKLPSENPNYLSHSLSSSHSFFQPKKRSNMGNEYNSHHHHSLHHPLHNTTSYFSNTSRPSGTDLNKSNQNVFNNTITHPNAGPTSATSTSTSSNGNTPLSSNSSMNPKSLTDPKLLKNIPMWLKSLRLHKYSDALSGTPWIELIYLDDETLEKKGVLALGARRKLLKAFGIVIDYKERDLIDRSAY

Vts1-SNAP (full length) [2] = molecular target: T1, Vts1-SNAP (full length); assay: fluorescence microscopy co-localization; remark: listed apart in the source

B1: full-length Vts1 with a C-terminal SNAP tag (natural protein, S. cerevisiae, UniProt Q08831 1-523, looked up)
chain: T1 sequence
Question: B1 was tested. Which “stoichiometry N” value (SEC) did it give?
Answer: 6

B2: SNAP^549 labeled full-length Vts1 (natural protein, S. cerevisiae, UniProt Q08831 1-523, looked up)
chain: T1 sequence
modifications: SNAP-Surface 549 dye on the SNAP tag
Question: Does B2 bind (native gel or EMSA)?
Answer: binds

B3: SRE+ RNA (structured_RNA)
RNA: UAAUAAUCAGCUGGCCUGAUUAGUC
Question: Does B3 bind (Vts1-SNAP (full length) [1])?
Answer: binds

B4: SRE- RNA (permuted SRE) (structured_RNA)
RNA: UAAUAAUCAGGUCGCCUGAUUAGUC
Question: With B4 as the binder, how does the binding signal (Vts1-SNAP (full length) [2]) read?
Answer: > 5 fold lower co-localized signal than SRE+

Reference: publication PMC6980676 (Molecular cell, 2019)
